Tests used:
[1] = target: GST-WAVE2 (UniProt Q9Y6W5); test: pull-down
[2] = target: FLAG-WAVE2 (UniProt Q9Y6W5); test: co-IP
Sequence of FLAG-WAVE2 (Q9Y6W5 whole entry): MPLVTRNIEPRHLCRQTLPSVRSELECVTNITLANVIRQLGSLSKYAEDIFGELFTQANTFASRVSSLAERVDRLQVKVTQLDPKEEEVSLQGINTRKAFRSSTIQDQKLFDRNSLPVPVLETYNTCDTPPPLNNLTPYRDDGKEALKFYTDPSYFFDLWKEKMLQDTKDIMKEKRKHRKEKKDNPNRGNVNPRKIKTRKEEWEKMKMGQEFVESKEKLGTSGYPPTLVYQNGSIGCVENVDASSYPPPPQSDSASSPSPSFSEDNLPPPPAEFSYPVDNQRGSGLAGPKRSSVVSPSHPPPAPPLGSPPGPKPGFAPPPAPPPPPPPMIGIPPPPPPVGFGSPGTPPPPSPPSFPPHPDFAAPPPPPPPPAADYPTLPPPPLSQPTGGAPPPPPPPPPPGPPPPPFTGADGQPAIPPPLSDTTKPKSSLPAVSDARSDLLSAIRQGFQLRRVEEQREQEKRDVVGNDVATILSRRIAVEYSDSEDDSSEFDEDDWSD

Sequence of GST-WAVE2 (Q9Y6W5 whole entry): as above

Row | KD in the presence of Exo70 [1] [nM] | Kd [1] [nM] | fold increase of Arp2/3 bound in the presence of Exo70 against BSA [1] [fold] | Arp3 co-precipitated after Exo70 siRNA, percent of control siRNA-treated cells [2] [%] | Substance
1 | 210 | 470 | 3.5 |  | Arp2/3 complex (purified) (from UniProt P61158 1-418)
2 |  |  |  | 44 | Arp2/3 complex, endogenous in MDA-MB-231 cells (from UniProt P61158 1-418)

Source: paper PMC3427469
